# Experimental data published in US7387779B2, “Anti-angiogenic proteins and fragments and methods of use thereof” (Beth Israel Deaconess Medical Center, priority 1998, dated 2008).
# What was measured:
# Format in all cases: cell-based, bovine
# [1] = tested on: Caspase-3 in C-PAE cells; test: Caspase-3 assay; conditions: for effect on Caspase-3 activity: 5 μg/ml
# Experimental: Tumstatin also altered cell morphology of C-PAE cells as monitored by phase contrast microscopy. After treating cells with 20 μg/ml of Tumstatin in the presence of 10% FCS for 24 hours on fibronectin-coated plates, the typical morphological features of apoptotic cells, membrane blebbing, cytoplasmic shrinkage, and chromatin condensation could be observed. […] Caspase-3 assay: Caspase-3 (CPP32) is an intracellular protease activated at the early stage of apoptosis, and initiates cellular breakdown by degrading structural and DNA repair proteins (Casciola-Rosen, L. et al., 1996, J. Exp. Med. 183:1957-64; Salvesen, G. S. et al., 1997, Cell 91:443-46). The protease activity of Caspase-3 was measured spectrophotometrically by detection of the chromophore (p-nitroanilide) cleaved from the labeled substrate (DEVD-pNA). C-PAE cells or PC-3 cells (0.5×10^6 per well) were plated onto a 6-well plate precoated with fibronectin (10 μg/ml) in DMEM supplemented with 10% FCS, and incubated overnight. The next day, the medium was replaced with DMEM containing 2% FCS and then incubated overnight at 37° C. Then cells were then stimulated with bFGF (3 ng/ml) in DMEM supplemented with 2% FCS, and also containing either TNF-α (80 ng/ml, positive control) or Tumstatin (10 μg/ml), and incubated for 24 hours. Controls received PBS buffer. After 24 hours, the supernatant cells were collected, and attached cells were trypsinized and combined with the supernatant cells. Cells were counted and resuspended in cell lysis buffer (Clontech) at a concentration of 4×10^7 cells/ml. The rest of the protocol followed the manufacturer's instructions (Clontech). A specific inhibitor of Caspase-3, DEVD-fmk (Asp-Glu-Val-Asp-fluoromethyl ketone) was used to confirm the specificity of the assay. The absorbance was measured in a microplate reader (Bio-Rad, Hercules, Calif., USA) at 405 nm. The assay was repeated three times for each cell type.
# Apoptosis was also evaluated by measuring Caspase-3 activity as described in Example 27, above. The results are shown in FIG. 35, which is a histogram showing Caspase-3 activity as a measure of absorbance at OD405 (y-axis) of C-PAE cells treated (x-axis) with 5 μg/ml Tum-1, Tum-2, Tum-3 or Tum-4, or 80 ng/ml TNF-α or PBS buffer (control).
# Caspase-3 activity was also assayed as described above. DEVD-fmk, a specific caspase-3 inhibitor, was used as an internal control to show specificity of Tumstatin-44-131. TNF-α (80 ng/ml) was used as a positive control. The experiments were repeated three times.
# The protease activity of Caspase-3 in cells treated with T3 peptide was measured spectrophotometrically by detection of the chromophore (p-nitroanilide) cleaved from the labeled substrate (DEVD-pNA). […] In PC-3 nonendothelial cells, there was no difference in Caspase-3 activity between control treatments and T3 peptide-treated cells.
# [2] = tested on: C-PAE cells; test: MTT cell viability assay
# Experimental: The pro-apoptotic activity of Tumstatin N-53 was examined in C-PAE cells. Cell viability was assessed by MTT (3-(4,5-dimethylthiazol-2-yl)-2-,5-diphenyl tetrasolium bromide) assay (Sugiyama, H. et al., 1998, Kidney Int. 54:1188-96). This assay is a quantitative calorimetric analysis for cell survival based on the ability of living cells to cleave the tetrasolium ring in active mitochondria. C-PAE cells (7,000 cells perwell) were plated to a 96-well plate in 10% FCS containing DMEM. The next day, either TNF-α (positive control, 80 ng/ml), or varying concentrations of Tumstatin or Tumstatin N-53 was added to the wells and incubated for 24 hours. MTT solution (5 mg/ml; CHEMICON International, Temecula, Calif., USA) was then added to the wells at a rate of 10 μl/well and incubated at 37° C. for 4 hours. Acid-isopropanol was added and mixed thoroughly. The absorbance was measured in a microplate reader (Bio-Rad, Hercules, Calif., USA) at 590 nm.
# The MTT assay was used to evaluate cell viability in C-PAE endothelial cells and WM-164 melanoma cells after treatment with Tumstatin, Tum-1, Tum-2, Tum-3 and Tum-4. The results are shown in FIGS. 34A and 34B, which are a pair of graphs showing the effect of increasing concentration (x-axis) of Tumstatin, Tum-1, Tum-2, Tum-3 and Tum-4 on the cell viability (y-axis) of C-PAE cells (FIG. 34A) and WM-164 cells (FIG. 34B). Each point represents the mean ±the standard error of the mean for triplicate wells.
# To further evaluate the mechanism of T3 peptide on endothelial cell proliferation, the effect of T3 peptide on cell cycle progression was analyzed. In the growth arrested and contact inhibited cells (0 hour), 4.1% of cells were in S phase. […] This was true even at a maximal dosage of 100 μg/ml. The effect of the T3 peptide was dose-dependent, however, with the percentage of cells in S phase at 21.4% at 10 μg/ml, and 20.5% at 25 μg/ml. The percentage of cells in G0/G1 phase was 88.3% at 0 hour, 53.4% for the bFGF control, and 57.6%, 57.6% and 71.0% for treatments with T1, T6 and T3 peptide, respectively. […] Apoptotic Activity: Peptides T2, T3, T4, T5 and T6 (10 μg/ml concentration) were tested for their effect of viability of C-PAE cells using the MTT assay, as described in Examples 32 and 36 above. The results are shown in FIG. 43D, which is a histogram showing cell viability as measured at OD595 (y-axis), and treatments with the synthetic peptides (x-axis). […] TNF-α (100 ng/ml) was used to serve as a positive control in inducing endothelial cell apoptosis.
# Cell viability was measured by MTT assay, as described above.
# [3] = tested on: C-PAE; test: Endothelial tube formation assay (Table 4)
# Experimental: Deletion fragments of tumstatin were cloned into bacterial expression vectors, expressed, purified using nickel chromoatography, and then analyzed for in vitro anti-angiogenic, and associated, activity. Special efforts were made to ensure the removal of contaminating endotoxins from the protein preparations. Full-length Tumstatin, Tumstatin-N53 and two additional deletion mutants (Tum-2C and Tum-KE) were made and tested. The deletion mutants were tested for endothelial cell proliferation, cell cycle progression, apoptosis, and endothelial tube formation.
Molecule,effect on cell viability [2],"decrease of cell viability ([2]; 5 μg/ml, 24 hours)",Tube (Endothelial tube formation assay) [3],effect on Caspase-3 activity [1],also measured
LQRFTTMPFLFCNVNDVCNF [T3],significantly decrease cell viability,–,–,–,"fold increase in Caspase-3 activity ([1]; 50 μg/ml T3 peptide, TNF-α 80 ng/ml): 3.6 fold; fold increase in Caspase-3 activity ([1]; T3 peptide at 10 mg/ml (so in the source)): 1.6 fold"
"Tumstatin: NC1 domain of the α3 chain of type IV collagen, residues 1-244 (SEQ ID NO:10) (protein, listed as Homo sapiens) GLKGKRGDSGSPATWTTRGFVFTRHSQTTAIPSCPEGTVPLYSGFSFLFVQGNQRAHGQDLGTLGSCLQRFTTMPFLFCNVNDVCNFASRNDYSYWLSTPALMPMNMAPITGRALEPYISRCTVCEGPAIAIAVHSQTTDIPPCPHGWISLWKGFSFIMFTSAGSEGTGQALASPGSCLEEFRASPFLECHGRGTCNYYSNSYSFWLASLNPERMFRKPIPSTVKAGELEKIISRCQVCMKKRH",–,22.5%,active,–,decrease of cell viability ([2]; 10 μg/ml): 60%
"Tum-4: residues 181 to 244 of Tumstatin (SEQ ID NO:25) (protein, Tum-4 (amino acids 181-244 of SEQ ID NO10)) EFRASPFLECHGRGTCNYYSNSYSFWLASLNPERMFRKPIPSTVKAGELEKIISRCQVCMKKRH",–,–,–,did not,–
"Tumstatin-44-131: residues 44 to 131 of full-length Tumstatin (SEQ ID NO:33) (protein, Tumstatin-45-132 (amino acids 45-132 of SEQ ID NO10)) FSFLFVQGNQRAHGQDLGTLGSCLQRFTTMPFLFCNVNDVCNFASRNDYSYWLSTPALMPMNMAPITGRALEPYISRCTVCEGPAIAI",–,–,active,–,"fold increase in Caspase-3 activity ([1]; 10 μg/ml E. Coli-expressed Tumstatin-44-131, TNF-α 80 ng/ml): 4.5 fold; ED50, decrease of cell viability [2]: 12 µg/mL"
"Tum-1: residues 54 to 244 of Tumstatin, lacking the N-terminal 53 amino acids (SEQ ID NO:22) (protein, Tum-1 (Tumstatin N-53) (amino acids 54-244 of SEQ ID NO10)) QRAHGQDLGTLGSCLQRFTTMPFLFCNVNDVCNFASRNDYSYWLSTPALMPMNMAPITGRALEPYISRCTVCEGPAIAIAVHSQTTDIPPCPHGWISLWKGFSFIMFTSAGSEGTGQALASPGSCLEEFRASPFLECHGRGTCNYYSNSYSFWLASLNPERMFRKPIPSTVKAGELEKIISRCQVCMKKRH",decreases cell viability in a dose-dependent manner,49.4%,active,increased,–
"Tum-2: residues 1 to 132 of Tumstatin (SEQ ID NO:23) (protein, Tum-2 (amino acids 1-132 of SEQ ID NO10)) GLKGKRGDSGSPATWTTRGFVFTRHSQTTAIPSCPEGTVPLYSGFSFLFVQGNQRAHGQDLGTLGSCLQRFTTMPFLFCNVNDVCNFASRNDYSYWLSTPALMPMNMAPITGRALEPYISRCTVCEGPAIAI",–,–,–,increased,–
